# Reference: the nanobody polyreactivity screen of Harvey et al. (2022)
# Experiment: yeast display, Sf9 membrane polyspecificity reagent, FACS + sequencing; frameworks hold sequencing errors
# Summary of the method: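 In a synthetic yeast display library (Saccharomyces cerevisiae BJ5465), nanobody expression was induced with galactose for 36–48 hours. FACS gates were set low and high (top ~1%) using anti-HA fluorescence for expression and streptavidin fluorescence for binding of the Sf9 membrane reagent. Each polyreactivity label is drawn from the gate of origin.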
row,Sequence,polyreactivity (PSR sort gate)
1,QVQLVESGGVLVQAGGSLRLSCAASGRTMDPYTMGGYRQAHGKERELVAAITSSGGRTTYADSVKGRFTISRDNAKNYVYLQMNSLKPEDTAVYYCAKKFRPGYRSQYLRYSWGQGTQVTVSS,low polyreactivity
2,QVQLVESGGVLVQAGGSLRLSCAASGSIFGSYGMGWYRQAPGKERELVAAIRVSGGSTYYADSVKGRFTISRDNAKNTVYLQMNSLKPEDTAVYYCAARARSTPRKYYYTRGYWGQGTQVTVSS,high polyreactivity
3,QVQLVESGGVLVQAGGSLRLSCAASGSIFGSYTMGWYRQAPGKEREMVAAISGGGASTYYADSVKGRFTISRDNAKNTVYLQMNSLKPEDTAVYYCYKRGVIERRKPWHYSTFDYWGQGTQVTVSS,low polyreactivity
4,QVQLVESGGVLVQAGGSLRLSCAASGSISYSYAMGWYRQAPGKERELVAAITWGGDSTYYADSVKGRFTISRDNAKNTVYLQMNSLKPEDTAVYYCAADLRFTYPVYRAGGGYDYWGQGTQVTVSS,low polyreactivity
5,QVQLVESGGVLVQAGGSLRLSCAASGSTFKPYAMGWYRQAPGKEREFVAANSRGTRTYADSVKGRFTISRDNAKNTVSLPMNSLKPEDTAVYYCAAEWSWIFGYHYEYDYGGQGTQVTVSS,low polyreactivity
6,QVQLVESGGVLVQAGGSLRLSCAASGSTFSRYAMGWYRQAPGKETELVAAINWSGGRTYYADSVKGRFTISRDNAKNTVYLQMNSLIAADTAVYFCAADGRRYSGEYYYWGQGTQVTVSS,high polyreactivity
7,QVQLVESGGVLVQAGGSLRLSCAASGSTFTDYAMGWYRQAPGKERELVAAITDSGGRTYYADSVKGRFTISRDNAKNTVYLQMNSLKPEDTAVYYCATEDDRWYYWGQGTQVTVSS,high polyreactivity
8,QVQLVESGGVLVQAGGSLRLSCAASGSTFYYYAMGWYRKAPGKERELVAAISSSGGTTYYADSVKGRFTISRDNAKNTVYLQMNSLKPEDTAVYYCAKYPWYWDEGNSWGQGTQVTVSS,low polyreactivity
9,QVQLVESGGVLVQAGGSLRLSCAASGSTLGGNAMGWYRQAPGKEMELVAAITSSAGSTYYADSVKGRFTISRDNAKNTVYLQMNSLKPEDTAVYYCDADYSRDEYDYWGQGTQVTVSS,low polyreactivity
10,QVQLVESGGVLVQAGGSLRLSCAASGYIFGNYAMGWYRQAPGNERELVASIDSGGSTNYADSVKGRFTISRDNAKNTVYLQKNSLKPEDTAVYYWAARPTWNRGRSRKYWRYNYWAQGTQVTVSS,high polyreactivity
11,QVQLVESGGVLVQAGGSLRLSCAASGYIFYPYAMGWYRQAPGKERELVAAISGSGSGTYYADSVKGRFTISRDNAKNTVYLQMNSLKPEDTAVYYCAKYLYDNVWMDYWGQGTQVTVSS,low polyreactivity
12,QVQLVESGGVLVQAGGSLRLSCAAYGFIFDYYAMGWYRQAPGKERELVAAITSRGGSTYYADSVKGRFTISRDNAKNTVYLQMNSLKPEDSAVYYCAARRRSAEYNYWGQGTQVTVSS,high polyreactivity
13,QVQLVESGGVLVQAGGSLRLSCAAYGSTLRRYAMGWYRQAPGKERELVAAISYSGGSTYYADSVKGRFTISRDNAKNTVYLQMNSLKPEDTAVYYCAVVTRKGLYDYWGQGTQVTVSS,high polyreactivity
14,QVQLVESGGVLVQAGGSLRLSCAPSGFTFYRYAMGWYRQAPGKESELVAAISYSGGRTYYADSVKGRFTISCDIAKNTVYLQMNSLKPEDTAVYYCNARASYGHQGRLGYARLYYWGQGTQVTVSS,high polyreactivity
15,QVQLVESGGVLVQAGGSLRLSCAPSGYIYSKYAMGWYRQAPGKERELVASITGRGSRTYYADSVKGRFTISRDNAKNTVYLQMNSLKPEDIAVYFCAADWYGQKTSNRWYFRPGYDYWGQGTQVTVSS,high polyreactivity
16,QVQLVESGGVLVQEGGSLRLSCAASGRIFQIYAMGWYRQAPGKERELFAAISGSTSYADSVKGRFTISRDNAKNTVYLQMNSLKPEDTAVYYCAKRVVRGKVDYWGQGTQVTVSS,low polyreactivity
17,QVQLVESGGVLVQEGGSLRLSCADSGRIFYSNAMGWYRQAPGKERELVAAISYSGGRTYYADSVKGRFTISRDNAKNTVYLQMNSLIPEDTAVYYCAARYAWGYVDPGDYWGQGTQVTVSS,high polyreactivity
18,QVQLVESGGVLVQSGGSLRLSCAASGSTFAYYAMGWYRQAPGKERELVAPISWSGGSTYYADSVKVRFTISRDNAKNTVYLQMNSLNPEDTAVYYCNKRNVLDYDYWGQGTQVTVSS,low polyreactivity
19,QVQLVESGGVLVQSGVSLRLTCAASGITFNYNAMGWDSQAPGKERELVAAIRGSDSTTYYADSVKERFTISRDNAKNTVYLQMNSLKPEDTAVYYCAADYVQGFGFYYQWHYDYWGQGTQVTVSS,low polyreactivity
20,QVQLVESGGWLVQAGGSLRLSCAASGSSFYGYGMGSYRQAPGKERELVAANTGSGDTTYYADSVKGRFTNSRDNEKNTVYLQMNSLKPEDTAVYYCNARWHAEYDYWGQGTQVTVSS,low polyreactivity
21,QVQLVESGLGLVQAGGSLRLSCAASGRIFYLNDMGWYRQAPGIERELVADMTRSGGTTYYADSVKGRFTISRDNEKNTVYLQMNSLKPEETSVYYCAAESRFRYVYGVGYRPYLYGYWGQGTQVTVSS,low polyreactivity

row,Sequence,polyreactivity (PSR sort gate)
1,QVQLVESGRGIVQAGGSLRLSCAASGSIFGWYAMGWYRQAPGKERELVASNSVTAGSTYYADSVKWRFTISRDNAKNTVYLLMYSLKPVYTAVYYCASDDDTADAVQLFYYWGQGTHVTVSS,low polyreactivity
2,QVQLVESGRGLDQAGGSLRLSCAASGSIIGANAMGWYRQAPGKERELVAAITDNTSTTFYADSVKGRFTISRDNAKNTVYLQMNSLKPEDTAVYYCNADRAVVLSTTVWGEYDYWGQGTQVTVSS,low polyreactivity
3,QVQLVESGRGLFQAGGSLRLSCAASGSTFTVNTMGWYRQAPGKERELVDAITKNGANTYYADSVKGRFTISRDNAKNTVYLQMNILKPEDTAVYYCAALYVYGKSYSRWLVELDYWGQGTQVTVSS,low polyreactivity
4,QVQLVESGRGLLQAGGSLPLSCAASGRIFAYNTMGWYRQAPGKERELVAAISWRGGSTYYADSVKGRFTISRDNAKKTVYFQMNSLKPEDTAVYYCSVLYSSFTRFDYWGQGSQVTVSS,high polyreactivity
5,QVQLVESGRGLLQAGGSLRLSCAASGSIFYPYVMGWYRQAPGKERELVASISWRGGRTYYADSVKGRFTISRDNAKNTVYLQMNSMKPEDTAVYYCAKRTYDSFYGYYYWGQGTQVTVSS,high polyreactivity
6,QVQLVESGRGLVLAGGSLRLSCAASGRIFRVNAMGWYRQAPGKERELVAAISRGGNTYYADSVKGRFTISRDNEKNTVSLQMNSLKPEDTAVYYCAASRSWPRMDYWGQGTQVSVSS,high polyreactivity
7,QVQLVESGRGLVQAGGSLPLSCAASGFIFRRYAMVWYRQAPGKERELVAGISRGGDSTYYADSVKGRFTISRDNAKNTVYLQMNSLKPEDTAVYFCAGQGRDSTPHGYWGQGTQVTVSS,high polyreactivity
8,QVQLVESGRGLVQAGGSLPLSSASSGLTFKTYAMGRYRQAPGKVSELVAAITSGGTSTYYADSVKGRFTISRDNAKNTVYFQMNSLKPEDTAVYYCAARYYFSYSVGYYYWGQGTQVTVSS,high polyreactivity
9,QVQLVESGRGLVQAGGSLRISCAASGFIFSKYAMGWYRQAPGKERELVAAISYSGGSTYYADSVKGRFTISRDNAKNTVYLQMNSLKPEDTAVYYCAAEGYGGYEHWGQGTQVTVSS,low polyreactivity
10,QVQLVESGRGLVQAGGSLRISSAASGFIYRYYAMGWYRQAPGKERELVAAINTGGTTYYADSVKGRFTISRDNAKNTVYFQMNSLKPEDTAVYYCAKRWPRSSLGDYWGQGTQVTVSS,high polyreactivity
11,QVQLVESGRGLVQAGGSLRLSCAASGFIFRDYAMGLYRQAPGKVRELVAAISSRGGGTSYADSVKGRFTITRDNAKNTVYLQMNSLKPEDTAVYYCNKGYGRYVVTAYDYWGQGTQVTVSS,high polyreactivity
12,QVQLVESGRGLVQAGGSLRLSCAASGFIFRYYAMGWYRQAPGKERELVAAINASGGRTYYADSVKGRFTISRDNARNSVYLQMNSLKPEDTAVYYCAAYRSYQTFDYWGQGTQVNVSS,high polyreactivity
13,QVQLVESGRGLVQAGGSLRLSCAASGFIFYSNAMGWYRQAPGKERELVAAISRGGGSTYFADSLKGRFTISRDNAKNTVYLQMNSLKPEDTAVYYCAKRRLSPQDDYWGQGTQVTVSS,high polyreactivity
14,QVQLVESGRGLVQAGGSLRLSCAASGFTFAGYAMGWYRQATGKERELVAAITWSGGRTYYADSVKGRFTISRDNAKNTVYLQMKSLKPEDTAVYYCAAASGRSRYEYWGQGTQVTVSS,high polyreactivity
15,QVQLVESGRGLVQAGGSLRLSCAASGIIFTYNAMGWYRQAPGKERELVAAISAGGGSTYYADSVKGRFTISRDNAKNTVYLQMNSLKPEDTAVYYCAAARRYATQFHYDSWGQGTQVTVSS,high polyreactivity
16,QVQLVESGRGLVQAGGSLRLSCAASGITFLDYAMGWYRQAPGKERELVAAITKSGGSTYYADSVKGRFTISRDNAKNTVFLQMNSLKPEDTAVYYCAKGRHPLWVEQPYEFDYWGQGTQVTVSS,low polyreactivity
17,QVQLVESGRGLVQAGGSLRLSCAASGITFVRYAMGWYRQAPGKEREFVAAITTSGGSTYYADSVKGRFTISRDNAKYSVYLQLNSLKPEDTAVYYCAARANAASRTFNYWGQGTQVTVSS,high polyreactivity
18,QVQLVESGRGLVQAGGSLRLSCAASGNTFGENAMGWYRKAPGKERELVAAISNGGTTNYADSVKGRFTISRDNAKNSVYLQMNSLKPEDTAVYYCNAKFGISQPGHSGLLKMDYWGQGTQVTVSS,low polyreactivity
19,QVQLVESGRGLVQAGGSLRLSCAASGRIFDKYAMGWYRQAPGKERELVAAISSSGGSTYYADSVKGRFTISRDNAKNTVYLQMNSLKTEVTAVYYCARQRYYGYYYWGQGTQVTVSS,high polyreactivity
20,QVQLVESGRGLVQAGGSLRLSCAASGRIFRWYDMGWYRKAPGKERELVAAISSRGGSTYYADSVKGRFTISRDNAKNTVYLQMNSLKPEDTAVYYCAADTSGWQPRYDYWGQGTQVTVSS,high polyreactivity
